Measurements: US11219221B2 (FarmHannong Co., Ltd., priority 2017, dated 2022)
Substitutions are numbered along the chain they refer to. Names and notes keep the numbering of the source.

B1: L327T + F360M: CyPPO16 variant (protein)
chain: MLDSLIVGAGISGLSAAHTLQKQQTQFLVTESQGRVGGNITTNRQGDYLWEEGPNSFAPTEDLLRLAVEVGLKEDLVFADRRLPRFVYWNQQLHPVPMSPPAALKTQLLSEAGKWRAALGALGFVGGLVGREEETVRQFFTRHLGTEVTERLVAPFVSGVYAGDVDQLSAQAAFRRVFEFAQLGGGLAAGGILARRQAPPKAPPDPSLPETKTGQLGSFREGLEMLPRAIASQLGDRLKLQWRLTHLEITPQQTYLAHFNTPDGPQQIATRTLILTTPAPITADLLKPLTPALHGVLKEIYYPPVACVVLAYPRAASARPLEGFGHTIPRNQGIRTLGTIWSSCLFPGRTPEGEHLLTNMIGGATDPGIAQLDPEEIAQAVHQDLCKILIRPEFTPKILAVRLWKQAIPQYTLGHLQRLATLEQELSKFPGLHILANYTDGVALGDCVKRGVAVAQKIRSRE
modifications: Synthetic (Protoporphyrinogen IX oxidase (CyPPO16) of Spirulina subsalsa)
notes: CyPPO16 variant
B2: A162C + L327T + F360M: CyPPO16 variant (protein)
chain: B1 chain with A162C
modifications: Synthetic (Protoporphyrinogen IX oxidase (CyPPO16) of Spirulina subsalsa)
notes: CyPPO16 variant
B3: V304M: CyPPO17 variant (protein)
chain: MEVDVAIVGGGLSGLSVAWRLQQSAPQYSGVLLEASDRLGGNITTQGAEGFVWELGPNSFAPTPALLQLIAEVGLHSELIRGDRHLPRYIYWRGELYPLEPTRPLALATSNLLSPWGKVRAALGALGFVPPYLGSGDESVNSFFRRHLGQEVAERLVAPFVSGVYAGDPQQLSAAAAFRRIAQLEKLGGGLIAGALRLRRQQPPKPRPPAEVQMRPGELGSFKEGLAALPRAIAQQLKAPVHLQTPVEAITPEPNGGYLLRSGEQTWQARSVVLATPAYQTAALVAPFQPAIARVLAAIPYPTMACVVLAYPAGLGRSVRPGFGVLIPRGQGIRTLGTIWSSCLFPQRTPAGWQVFTSFIGGATDPDLASLREEAIVQQVQQDLTRLLDLPAAKARLLGMKVWRRAIPQYLVGYPQQWQQVTHALSQTPGLFLCSNYAEGVALGDRVEHGNRTAAAVAAYLSGGQS
modifications: Synthetic (Protoporphyrinogen IX oxidase (CyPPO17) of Thermosynechococcus sp. NK55a)
notes: CyPPO17 variant
B4: F323V: CyPPO17 variant (protein)
chain: B3 chain with M304V, F323V
modifications: Synthetic (Protoporphyrinogen IX oxidase (CyPPO17) of Thermosynechococcus sp. NK55a)
notes: CyPPO17 variant
B5: L326T: CyPPO17 variant (protein)
chain: B3 chain with M304V, L326T
modifications: Synthetic (Protoporphyrinogen IX oxidase (CyPPO17) of Thermosynechococcus sp. NK55a)
notes: CyPPO17 variant
B6: I339T: CyPPO17 variant (protein)
chain: B3 chain with M304V, I339T
modifications: Synthetic (Protoporphyrinogen IX oxidase (CyPPO17) of Thermosynechococcus sp. NK55a)
notes: CyPPO17 variant
B7: F359M: CyPPO17 variant (protein)
chain: B3 chain with M304V, F359M
modifications: Synthetic (Protoporphyrinogen IX oxidase (CyPPO17) of Thermosynechococcus sp. NK55a)
notes: CyPPO17 variant
B8: F359I: CyPPO17 variant (protein)
chain: B3 chain with M304V, F359I
modifications: Synthetic (Protoporphyrinogen IX oxidase (CyPPO17) of Thermosynechococcus sp. NK55a)
notes: CyPPO17 variant
B9: F359T: CyPPO17 variant (protein)
chain: B3 chain with M304V, F359T
modifications: Synthetic (Protoporphyrinogen IX oxidase (CyPPO17) of Thermosynechococcus sp. NK55a)
notes: CyPPO17 variant
B10: R88A: CyPPO17 variant (protein)
chain: B3 chain with R88A, M304V
modifications: Synthetic (Protoporphyrinogen IX oxidase (CyPPO17) of Thermosynechococcus sp. NK55a)
notes: CyPPO17 variant
B11: F160A: CyPPO17 variant (protein)
chain: B3 chain with F160A, M304V
modifications: Synthetic (Protoporphyrinogen IX oxidase (CyPPO17) of Thermosynechococcus sp. NK55a)
notes: CyPPO17 variant

Test system: CyPPO16
Assay: Herbicide tolerance test of CyPPO16 wild type and variants in PPO-deficient E. coli BT3(ΔPPO)
Assay type: cell-based, Spirulina subsalsa
Details: BT3(ΔPPO) transformants, two or more amino acid mutations; dark, 37° C., 16 to 20 hours; relative to wild type at highest concentration (50, 200 μM)
Procedure: The mutated CyPPO gene obtained from the Example 2 was transformed to BT3 (ΔPPO) strain which is deficient of PPO activity and cultured in LB media with PPO-inhibiting herbicide, thereby examining whether growth of transformed BT3 was not inhibited.
BT3 competent cells were transformed with the pET303-CyPPO16 and pET303-CyPPO17 plasmids and those with a mutation(s) constructed in Example 2 respectively, and were cultured in LB agar media containing carbenicillin (Gold Biotechnology, Co., Ltd.).
Single colony of E. coli transformed with each CyPPO gene was cultured in 3 ml of LB broth containing carbenicillin overnight, and then was subcultured until absorbance (0D600) reached 0.5 to 1. Then, it was diluted with LB broth to OD600=0.5. Again, the diluted solution was serially diluted 4 times by a factor of one tenth.
The LB agar media (LB 25 g/l, Bacto agar 15 g/l) containing carbenicillin (100 μg/ml) and 0 to 4,000 μM of various herbicides dissolved in DMSO was prepared. Next, 10 μl of each diluted solution was dropped on the plate and cultured at 37° C. under light (Tables 7 and 9, FIGS. 2 to 6, and 18 to 22) or dark (Tables 8 and 10, FIGS. 7 to 17, and 23 to 33) for 16 to 20 hours. Then, extent of tolerance was evaluated.
The extent of herbicide tolerance of the mutated genes was evaluated by comparing that of mutated genes with that of wild type. The relative tolerance was represented with “+” as a factor of 10 times. Evaluation result was listed in Tables 7 to10 and FIGS. 2 to 33:
In Tables 7 to 10, tolerance level was presented as of tolerance of wild type and of variants equivalent to that of wild type, and was done as ‘+’ per each 10 fold resistance until ‘+++++’ as maximal resistance. (Tolerance level was evaluated by relative growth level of variants to that of wild type in the media containing highest concentration of herbicide; ‘+’=1-9 fold higher tolerance, ‘++’=10-99 fold higher tolerance, ‘+++’=100-999 fold higher tolerance, ‘++++’=1,000-9,999 fold higher tolerance, ‘+++++’=more than 10,000 fold higher tolerance)
The concentrations of herbicides were written above the photographs of tolerance test. A dilution series (0D600=0.5, 0.05, 0.005, 0.0005, 0.00005) was made and spotted on LB agar plates supplemented with herbicides.

Molecule | Herbicide tolerance, tiafenacil
B1 | ++++ (‘++++’=1,000-9,999 fold higher tolerance)
B2 | +++++ (‘+++++’=more than 10,000 fold higher tolerance)

Same assay, conditions: BT3(ΔPPO) transformants, two or more amino acid mutations; dark; relative to wild type at highest concentration (25, 50 μM)

Molecule | Herbicide tolerance, flumioxazin
B1 | ++++ (‘++++’=1,000-9,999 fold higher tolerance)
B2 | +++++ (‘+++++’=more than 10,000 fold higher tolerance)

Same assay, conditions: BT3(ΔPPO) transformants, two or more amino acid mutations; dark; relative to wild type at highest concentration (2000, 4000 μM)

Molecule | Herbicide tolerance, sulfentrazone
B1 | ++ (‘++’=10-99 fold higher tolerance)
B2 | ++++ (‘++++’=1,000-9,999 fold higher tolerance)

Test system: CyPPO17
Assay: PPO enzyme activity of MBP-fused CyPPO17 wild type and variants
Assay type: biochemical, Thermosynechococcus sp. NK55a
Details: PPO enzyme activity relative to wild type; MBP-fused protein, 50 μM protoporphyrinogen IX, room temperature, 30 min
Procedure: (§1) Thus, PPO proteins of wild type and variants were expressed as fused to MBP and were used for experiments.
(§2) The following process for purification of PPO protein was performed in a 4° C. cold room. Amylose resin (NEB) was packed to 1.5×15 cm column (Bio-Rad, Econo Columns 1.5×15 cm, glass chromatography column, max. vol), and the obtained protein extracts were loaded to the column at a flow rate of 0.2 ml/min. The column was washed with 3 column volumes of buffer and the presence of protein in the washing solution was examined. When the protein was no longer detected, the washing procedure was terminated. Then, the MBP-PPO protein was eluted with approximately 2 column volumes of buffer containing 20 mM maltose. The protein concentration of each eluent was determined and the elution was stopped when the protein was no longer detected. Ten microliter of each fraction was investigated for protein quantification and SDS-PAGE analysis. The highly pure fractions of PPO protein variants were used for the enzyme assay.
(§3) Since protoporphyrinogen IX, a substrate of PPO protein, was not commercially available, it was chemically synthesized in the laboratory. Overall process was performed in dark under nitrogen stream. […] of protoporphyrin IX was dissolved in 20 ml of 20% (v/v) EtOH, and stirred under dark condition for 30 minutes. The obtained protoporphyrin IX solution was put into a 15 ml screw tube in an amount of 800 μl, and flushed with nitrogen gas for 5 minutes. To this, 1.5 g of sodium amalgam was added and vigorously shaken for 2 minutes. The lid was opened to exhaust hydrogen gas in the tube. Thereafter, the lid was closed and incubated for 3 minutes. The protoporphyrinogen IX solution was filtered using syringe and cellulose membrane filter. […] To determine the enzyme activity of PPO protein, a reaction mixture was prepared with the following composition (based on 10 ml): 50 mM Tris-Cl (pH 8.0); 50 mM NaCl; 0.04% (v/v) Tween 20; 40 mM glucose (0.072 g); 5 units glucose oxidase (16.6 mg); and 10 units catalase (1 μl).
(§4) Hundred and eighty microliters of a reaction mixture containing the purified PPO protein were placed in 96 well plates and 20 μl of […] were added. […] The reaction proceeded at room temperature for 30 min and the fluorescence of protoporphyrin IX was measured using Microplate reader (Sense, Hidex) (excitation: 405 nm; emission: 633 nm). […] To this, 2.7 N HCl was added, and the absorbance at 408 nm was measured. A standard curve was generated using standard protoporphyrin IX, and PPO activity was measured by calibration of protoporphyrin IX using the standard curve of protoporphyrin IX.
(§5) Activities of variants were presented relatively compared to that of wild type.

Molecule | Activity (%)
B3 | 82
B4 | 16
B5 | 96
B6 | 48
B7 | 90
B8 | 92
B9 | 56
B10 | 70
B11 | 63

Test system: CyPPO16
Assay: PPO enzyme activity of MBP-fused CyPPO16 wild type and variants
Assay type: biochemical, Spirulina subsalsa
Details: PPO enzyme activity relative to wild type; MBP-fused protein, 50 μM protoporphyrinogen IX, room temperature, 30 min
Procedure: as §1, §2, §3, §4, §5

Molecule | Activity (%)
B1 | 21
B2 | 17
